Read-outs that look alike come from different tables or passages of the source.

Consider 2 molecules from PMC10173331.

The target of series [1] is T1, clusterin (apolipoprotein J) (UniProt P10909 23-449). The series is described as follows: AuNP colorimetric aggregation assay.
Series [2] deals with T1, clusterin (apolipoprotein J). The series is described as follows: AuNP colorimetric aggregation assay. The source holds these as a separate data set.

T1 sequence (P10909 23-449): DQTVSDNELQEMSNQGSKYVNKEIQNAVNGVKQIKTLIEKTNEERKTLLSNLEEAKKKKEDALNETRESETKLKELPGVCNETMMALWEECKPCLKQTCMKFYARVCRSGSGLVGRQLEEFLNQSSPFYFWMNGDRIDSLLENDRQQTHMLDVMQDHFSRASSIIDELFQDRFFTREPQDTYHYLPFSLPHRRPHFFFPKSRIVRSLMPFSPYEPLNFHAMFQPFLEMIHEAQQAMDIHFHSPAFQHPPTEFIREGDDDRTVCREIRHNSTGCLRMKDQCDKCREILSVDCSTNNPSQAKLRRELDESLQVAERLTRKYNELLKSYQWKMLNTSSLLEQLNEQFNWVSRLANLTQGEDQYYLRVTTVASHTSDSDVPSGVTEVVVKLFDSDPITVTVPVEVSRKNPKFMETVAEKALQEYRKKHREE

B1: clusterin 1 (ssDNA)
DNA: CTCCTCTGACTGTAACCACGTTAGGCGAGAACATGTCAGTACGTCGACGTTCTACTTGCTGCATAGGTAGTCCAGAAGCC
With B1, in series [1], the binding result is recorded as “binds”.
Take CTCCTCTGACTGTAACCACGTTAGGCGAGAACATGTCAGT (ssDNA) [clusterin 2]: in series [2], the binding result is recorded as “binds”.
